# Results: patent US20110118131A1 (published 2011)
# Where a chain is given by its changes, count along the chain named. Numbers in names are those of the source.
# B1: XPA23 heavy chain D106G (Fab, V domains shown)
# VH: EVQLLESGGGLVQPGGSLRLSCAASGFTFSKYFMFWVRQAPGKGLEWVSVISPSGGMTRYADSVKGRFTISRDNSKNTLYLQMNSLRAEDTAVYYCARVGYGGNSGYWGQGTLVTVSS
# VL: DIQMTQSPSSVSASVGDRLTIICRASQDINRWLAWYQQTPGNAPKLLIHSATSLQSGVPSRFSGSGSGTDFTLTINSLQPEDFATYYCQQADSFPLTFGGGTKVEIK
# notes: Fab, periplasmic extract; also called C5A D106G
# B2: XPA23 heavy chain I51L (Fab, V domains shown)
# VH: B1 VH with I51L, G106D
# VL: B1 VL
# notes: Fab, periplasmic extract; also called C5A I51L
# B3: XPA23 heavy chain F35G (Fab, V domains shown)
# VH: B1 VH with F35G, G106D
# VL: B1 VL
# notes: Fab, periplasmic extract; also called C5A F35G
# B4: XPA23 heavy chain F33L (Fab, V domains shown)
# VH: B1 VH with F33L, G106D
# VL: B1 VL
# notes: Fab, periplasmic extract; also called C5A F33L
# B5: XPA23 heavy chain F33T (Fab, V domains shown)
# VH: B1 VH with F33T, G106D
# VL: B1 VL
# notes: Fab, periplasmic extract; also called C5A F33T
# B6: XPA23 heavy chain G56I (Fab, V domains shown)
# VH: B1 VH with G56I, G106D
# VL: B1 VL
# notes: Fab, periplasmic extract; also called C5A G56I
# B7: XPA23 heavy chain M57A (Fab, V domains shown)
# VH: B1 VH with M57A, G106D
# VL: B1 VL
# notes: Fab, periplasmic extract; also called C5A M57A
# B8: XPA23 heavy chain K31L (Fab, V domains shown)
# VH: B1 VH with K31L, G106D
# VL: B1 VL
# notes: Fab, periplasmic extract; also called C5A K31L
# B9: XPA23 heavy chain N104A (Fab, V domains shown)
# VH: B1 VH with N104A, G106D
# VL: B1 VL
# notes: Fab, periplasmic extract; also called C5A N104A
# B10: XPA23 heavy chain F35I (Fab, V domains shown)
# VH: B1 VH with F35I, G106D
# VL: B1 VL
# notes: Fab, periplasmic extract; also called C5A F35I
# B11: XPA23 heavy chain M57V (Fab, V domains shown)
# VH: B1 VH with M57V, G106D
# VL: B1 VL
# notes: Fab, periplasmic extract; also called C5A M57V
# B12: XPA23 heavy chain I51V (Fab, V domains shown)
# VH: B1 VH with I51V, G106D
# VL: B1 VL
# notes: Fab, periplasmic extract; also called C5A I51V
# B13: XPA23 heavy chain F33V (Fab, V domains shown)
# VH: B1 VH with F33V, G106D
# VL: B1 VL
# notes: Fab, periplasmic extract; also called C5A F33V
# B14: XPA23 heavy chain F35L (Fab, V domains shown)
# VH: B1 VH with F35L, G106D
# VL: B1 VL
# notes: Fab, periplasmic extract; also called C5A F35L
# B15: XPA23 heavy chain G56L (Fab, V domains shown)
# VH: B1 VH with G56L, G106D
# VL: B1 VL
# notes: Fab, periplasmic extract; also called C5A G56L
# B16: XPA23 heavy chain F33I (Fab, V domains shown)
# VH: B1 VH with F33I, G106D
# VL: B1 VL
# notes: Fab, periplasmic extract; also called C5A F33I
# B17: XPA23 heavy chain F35T (Fab, V domains shown)
# VH: B1 VH with F35T, G106D
# VL: B1 VL
# notes: Fab, periplasmic extract; also called C5A F35T
# B18: XPA23 heavy chain M57L (Fab, V domains shown)
# VH: B1 VH with M57L, G106D
# VL: B1 VL
# notes: Fab, periplasmic extract; also called C5A M57L
# B19: XPA23 heavy chain F33A (Fab, V domains shown)
# VH: B1 VH with F33A, G106D
# VL: B1 VL
# notes: Fab, periplasmic extract; also called C5A F33A
# B20: XPA23 heavy chain F33G (Fab, V domains shown)
# VH: B1 VH with F33G, G106D
# VL: B1 VL
# notes: Fab, periplasmic extract; also called C5A F33G
# B21: XPA23 heavy chain K31I (Fab, V domains shown)
# VH: B1 VH with K31I, G106D
# VL: B1 VL
# notes: Fab, periplasmic extract; also called C5A K31I
# B22: XPA23 heavy chain G55I (Fab, V domains shown)
# VH: B1 VH with G55I, G106D
# VL: B1 VL
# notes: Fab, periplasmic extract; also called C5A G55I
# B23: XPA23 heavy chain G56P (Fab, V domains shown)
# VH: B1 VH with G56P, G106D
# VL: B1 VL
# notes: Fab, periplasmic extract; also called C5A G56P
# B24: XPA23 heavy chain G56A (Fab, V domains shown)
# VH: B1 VH with G56A, G106D
# VL: B1 VL
# notes: Fab, periplasmic extract; also called C5A G56A
# B25: XPA23 heavy chain M57I (Fab, V domains shown)
# VH: B1 VH with M57I, G106D
# VL: B1 VL
# notes: Fab, periplasmic extract; also called C5A M57I
# B26: XPA23 heavy chain F33P (Fab, V domains shown)
# VH: B1 VH with F33P, G106D
# VL: B1 VL
# notes: Fab, periplasmic extract; also called C5A F33P
# B27: XPA23 heavy chain G56T (Fab, V domains shown)
# VH: B1 VH with G56T, G106D
# VL: B1 VL
# notes: Fab, periplasmic extract; also called C5A G56T
# B28: XPA23 heavy chain I51A (Fab, V domains shown)
# VH: B1 VH with I51A, G106D
# VL: B1 VL
# notes: Fab, periplasmic extract; also called C5A I51A
# B29: XPA23 heavy chain F35A (Fab, V domains shown)
# VH: B1 VH with F35A, G106D
# VL: B1 VL
# notes: Fab, periplasmic extract; also called C5A F35A
# B30: XPA23 heavy chain K31V (Fab, V domains shown)
# VH: B1 VH with K31V, G106D
# VL: B1 VL
# notes: Fab, periplasmic extract; also called C5A K31V
# B31: XPA23 heavy chain G55L (Fab, V domains shown)
# VH: B1 VH with G55L, G106D
# VL: B1 VL
# notes: Fab, periplasmic extract; also called C5A G55L
# B32: XPA23 heavy chain I51G (Fab, V domains shown)
# VH: B1 VH with I51G, G106D
# VL: B1 VL
# notes: Fab, periplasmic extract; also called C5A I51G
# B33: XPA23 heavy chain M57T (Fab, V domains shown)
# VH: B1 VH with M57T, G106D
# VL: B1 VL
# notes: Fab, periplasmic extract; also called C5A M57T
# B34: XPA23 heavy chain F35V (Fab, V domains shown)
# VH: B1 VH with F35V, G106D
# VL: B1 VL
# notes: Fab, periplasmic extract; also called C5A F35V
# B35: XPA23 heavy chain G103V (Fab, V domains shown)
# VH: B1 VH with G103V, G106D
# VL: B1 VL
# notes: Fab, periplasmic extract; also called C5A G103V
# B36: XPA23 heavy chain I51T (Fab, V domains shown)
# VH: B1 VH with I51T, G106D
# VL: B1 VL
# notes: Fab, periplasmic extract; also called C5A I51T
# B37: XPA23 heavy chain G100T (Fab, V domains shown)
# VH: B1 VH with G100T, G106D
# VL: B1 VL
# notes: Fab, periplasmic extract; also called C5A G100T
# B38: XPA23 heavy chain G103A (Fab, V domains shown)
# VH: B1 VH with G103A, G106D
# VL: B1 VL
# notes: Fab, periplasmic extract; also called C5A G103A
# B39: XPA23 heavy chain F35P (Fab, V domains shown)
# VH: B1 VH with F35P, G106D
# VL: B1 VL
# notes: Fab, periplasmic extract; also called C5A F35P
# B40: XPA23 light chain W32V (Fab, V domains shown)
# VH: B1 VH with G106D
# VL: B1 VL with W32V
# B41: XPA23 light chain W32T (Fab, V domains shown)
# VH: B1 VH with G106D
# VL: B1 VL with W32T
# B42: XPA23 light chain W32R (Fab, V domains shown)
# VH: B1 VH with G106D
# VL: B1 VL with W32R
# B43: XPA23 light chain W32Y (Fab, V domains shown)
# VH: B1 VH with G106D
# VL: B1 VL with W32Y
# B44: XPA23 light chain W32S (Fab, V domains shown)
# VH: B1 VH with G106D
# VL: B1 VL with W32S
# Target: T1, IL-1β (UniProt P01584 117-269)
# T1 construct: Antigen of XPA23
# Experiment: Biacore, Fab periplasmic extract
row,fold difference in affinity against the original [fold],Binder
1,0.03,B1
2,0.79,B2
3,0.04,B3
4,0.88,B4
5,0.78,B5
6,1.71,B6
7,0.03,B7
8,1.08,B8
9,1.61,B9
10,0.85,B10
11,0.03,B11
12,0.99,B12
13,0.76,B13
14,0.78,B14
15,1.41,B15
16,0.75,B16
17,0.74,B17
18,0.06,B18
19,0.75,B19
20,0.76,B20

row,fold difference in affinity against the original [fold],Binder
1,0.74,B21
2,0.86,B22
3,0.85,B23
4,1.21,B24
5,0.03,B25
6,0.91,B26
7,1.11,B27
8,1.04,B28
9,0.07,B29
10,0.81,B30
11,0.08,B31
12,0.94,B32
13,0.06,B33
14,0.89,B34
15,2.56,B35
16,0.86,B36
17,0.12,B37
18,0.03,B38
19,0.06,B39

# Target: T2, IL-1β (UniProt P01584 117-269)
# T2 construct: Antigen immobilised on the Biacore chip
# Experiment: Biacore, periplasmic extract
row,binding result,Binder
1,no binding,B40
2,no binding,B41
3,no binding,B42
4,no binding,B43
5,no binding,B44
